The values that follow come from PMC6315105 (Cell Reports, 2018).

Experiment [1] concerns the target RVFV Gn (crystallization construct) (Rift Valley fever virus, UniProt P21401). Kind of experiment: SEC. To be noted: both partners purified.
For experiment [2], the target named is SFTSV Gn glycoprotein (residues 20-341) (Severe fever with thrombocytopenia …, UniProt R4V2Q5). Kind of experiment: ELISA. The following applies: both partners purified.
SFTSV Gn glycoprotein (residues 20-341), sequence (R4V2Q5 whole entry, looked up, the tested form may be a part): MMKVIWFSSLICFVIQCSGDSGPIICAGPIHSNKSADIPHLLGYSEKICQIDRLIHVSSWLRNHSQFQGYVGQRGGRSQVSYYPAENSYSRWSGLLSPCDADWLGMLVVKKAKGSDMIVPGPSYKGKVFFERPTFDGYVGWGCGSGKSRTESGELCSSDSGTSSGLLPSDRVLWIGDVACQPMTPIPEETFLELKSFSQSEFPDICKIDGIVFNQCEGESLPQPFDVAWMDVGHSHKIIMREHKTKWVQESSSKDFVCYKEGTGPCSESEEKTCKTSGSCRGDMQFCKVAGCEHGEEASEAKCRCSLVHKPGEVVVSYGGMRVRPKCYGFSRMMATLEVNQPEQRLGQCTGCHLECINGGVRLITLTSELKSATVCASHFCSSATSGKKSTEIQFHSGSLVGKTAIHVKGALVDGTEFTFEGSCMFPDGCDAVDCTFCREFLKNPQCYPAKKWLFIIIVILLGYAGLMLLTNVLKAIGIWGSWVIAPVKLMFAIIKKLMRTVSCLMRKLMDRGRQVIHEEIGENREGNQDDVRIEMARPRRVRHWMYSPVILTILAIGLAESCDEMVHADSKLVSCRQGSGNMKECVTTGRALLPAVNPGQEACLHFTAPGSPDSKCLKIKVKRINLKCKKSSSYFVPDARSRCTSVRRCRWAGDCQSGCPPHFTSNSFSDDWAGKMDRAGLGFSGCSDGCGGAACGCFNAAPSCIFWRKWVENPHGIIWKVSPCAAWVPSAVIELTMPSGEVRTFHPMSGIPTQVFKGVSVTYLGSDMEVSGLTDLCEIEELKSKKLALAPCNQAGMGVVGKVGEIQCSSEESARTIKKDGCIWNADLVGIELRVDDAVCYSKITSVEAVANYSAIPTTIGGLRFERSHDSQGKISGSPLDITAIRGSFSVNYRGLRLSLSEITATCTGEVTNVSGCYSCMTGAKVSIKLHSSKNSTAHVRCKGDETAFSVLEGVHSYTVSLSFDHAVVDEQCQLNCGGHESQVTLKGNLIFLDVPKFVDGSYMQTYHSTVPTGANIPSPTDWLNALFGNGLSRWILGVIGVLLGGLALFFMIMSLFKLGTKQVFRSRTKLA

RVFV Gn (crystallization construct), sequence (P21401 168-483): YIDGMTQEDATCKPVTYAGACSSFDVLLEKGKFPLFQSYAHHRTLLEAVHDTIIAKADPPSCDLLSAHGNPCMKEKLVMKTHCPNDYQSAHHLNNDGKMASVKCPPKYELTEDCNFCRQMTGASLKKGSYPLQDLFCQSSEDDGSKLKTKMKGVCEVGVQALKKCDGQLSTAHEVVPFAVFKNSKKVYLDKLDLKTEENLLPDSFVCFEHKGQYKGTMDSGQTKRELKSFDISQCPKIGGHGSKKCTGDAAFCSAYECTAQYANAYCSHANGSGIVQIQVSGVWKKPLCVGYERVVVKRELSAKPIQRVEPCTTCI

B1: Fab fragment of RV-Gn1 (Fab, V domains shown)
VH: TGSLEESGGRLVTPGTPLTLTCTVSGIDPNSDHMSWVRQAPGKGLEWIAIIYASGTTYYASWAKGRFTISKTSTTVDLRIASPTTEDTATYFCATYPNYPTDNLWGQGTLVTVSG
VL: TGMTQTPSPVSAAVGGTVTINCQASQSVYNNYLLSWYQQKPGQPPKRLIYSASTLASGVSSRFKGSGSGTQFTLTISDVQCDDAATYYCLGSYDGNSADCLAFGGGTEVVVK
notes: also called RV-Gn1 Fab; Fab RV-Gn1
As to B1, the “stoichiometry N” value in experiment [1] came to 1.

B2: RV-Gn1 (full-length rabbit IgG) (antibody, V domains shown)
VH: QSLEESGGRLVTPGTPLTLTCTVSGIDPNSDHMSWVRQAPGKGLEWIAIIYASGTTYYASWAKGRFTISKTSTTVDLRIASPTTEDTATYFCATYPNYPTDNLWGQGTLVTVSS
VL: TGMTQTPSPVSAAVGGTVTINCQASQSVYNNYLLSWYQQKPGQPPKRLIYSASTLASGVSSRFKGSGSGTQFTLTISDVQCDDAATYYCLGSYDGNSADCLAFGGGTEVVVK
notes: also called RVFV-Gn1; source: rabbit hybridoma supernatant, purified (Protein G)
In the case of B2, in experiment [2], the binding result is recorded as “no binding (tested: 10μg/ml)”.
